The results in this text go back to patent US20160017326A1, “MICRORNAS AS FUNCTIONAL MEDIATORS AND BIOMARKERS OF BONE METASTASIS” (THE TRUSTEES OF PRINCETON UNIVERSITY, priority 2013, published 2016).

The test system of data set [1] is miRNA expression in RAW264.7 cells. Kind of data set: qRT-PCR of osteoclast miRNA expression after sICAM1 treatment. In kind it is cell-based, murine. The conditions noted are these: for sICAM1-induced miRNA expression changes: 50 ng/ml sICAM1, 20 μM inhibitor, 6 days. On the procedure:
(§1) mRNA was analyzed by synthesizing cDNA using the Superscript III First-strand kit (Invitrogen) and qPCR performed using the Power SYBR® green PCR master mix (Applied Biosystems). Mature miRNAs were reverse transcribed using the TaqMan Reverse Transcription Kit (Applied Biosystems) followed by real-time PCR using TaqMan miRNA assays (Applied Biosystems). All analysis was performed using an ABI 7900HT PCR machine according to the manufacturer's instructions. A standard curve was created from serial dilutions from cDNA for each gene of interest. Values were normalized by the expression of GAPDH or RNU6B in each sample.

The target in the next data set is RANKL. Kind of data set: cell-based or functional assay.
Data set [2] has as its system RAW264.7 cells. Briefly: RANKL-induced osteoclast differentiation, TRAP staining. It is filed as cell-based, murine. The conditions noted are these: for osteoclast differentiation / TRAP+ osteoclasts: 6 days. An excerpt:
HeLa and RAW264.7 cells (American Type Culture Collection, ATCC) were maintained in Dulbecco's modified Eagle's medium (DMEM) supplemented with 10% fetal bovine serum (FBS), penicillin/streptomycin (GIBCO), and fungizone. MOCP-5 cells were maintained in αMEM with 10% FBS and antibiotics. MDA-MB-231 parental cells (ATCC) and all sublines (SCP2, SCP4, SCP6, SCP28, SCP46) were maintained in DMEM with 10% FBS and antibiotics. The murine 4T1 and 4T1.2 cells, and human TSU-Pr1, and TSU-PR1-B2 cells were similarly maintained in DMEM with 10% FBS and antibiotics. For osteoclast differentiation assays, cells were treated with indicated concentration of RANKL in DMEM plus 10% FBS, with media changes performed every 2 days. Primary osteoclasts were isolated from bone marrow cells flushed from the tibia of 6-week-old wild type Balb/c mice and filtered through a […] cell-strainer before overnight culture in aMEM with 10% FBS. The following day 1×10^6 non-adherent cells were plated in 6-well plates supplemented with 50 ng/mL M-CSF for 2 days, followed by 50 ng/mL RANKL for an additional 4-5 days, with media changes every 2 days. Human osteoclasts were obtained from Lonza (2T-110) and differentiated by treatment with 33 ng/ml M-CSF and 66 ng/ml RANKL. CM was collected from the indicated sub-confluent tumor cells grown in DMEM with […] for 24 hours. The CM was passed through a 0.2 μm filter before addition to 1×10^5 RAW264.7 or MOCP-5 cells in a 6-well plate. The media was replaced with fresh CM daily. Cells were TRAP stained on day 6 using a leukocyte acid phosphatase kit (Sigma) and TRAP^+-multineucliated cells were quantified as mature osteoclasts. […]

For data set [3], the system named is osteoclast marker genes in RAW264.7 cells. Kind of data set: qRT-PCR of osteoclast marker genes. It is filed as cell-based, murine. The conditions noted are these: sICAM1 together with 50 ng/ml RANKL versus RANKL alone. The protocol:
as §1

The test system of data set [4] is RAW264.7 cells. Briefly: Chemotaxis assay of RAW264.7 cells. The conditions noted are these: series of sICAM1 concentrations. It is filed as cell-based, murine. The protocol: Chemotaxis assay was performed as described (Lu et al., 2011) with the following modifications: 10^5 RAW264.7 cells in 100 μl of 0.5% BSA in DMEM were seeded into the upper chamber of 8 μm pore transwell inserts (BD Bioscience) in a 24-well plate. 300 μl of 0.5% BSA in DMEM containing a series of concentrations of recombinant ICAM1 (R&D Systems) was added to the bottom chamber. After 8 h in culture, methanol was added to the bottom chamber to fix migrated cells. Cells in the upper chamber were removed with a cotton swab and stained for 30 mins in 0.2% crystal violet for quantification using a microscope.

Data set [5] deals with RAW264.7 cells. Briefly: In vitro bone resorption assay on bovine bone slices. The conditions noted are these: miRNA transfection, 50 ng/ml RANKL, relative to control cells. In kind it is cell-based, murine. On the procedure: 5×10^4 pre-osteoclast cells were seeded onto 1 mm thick slices of bovine bone cut using a diamond saw and sterilized by immersion in 70% ethanol. Cells were cultured for 10 days as indicated in 6-well plates, transferred to fresh plates and washed to remove osteoclasts. Bone slices were stained in a solution of 1% toludine blue in 0.5% sodium tetraborate, destained in PBS plus 1% Triton X-100, and imaged by light microscopy.
In vitro bone resorption assay was then used to measure the effect of ectopic miRNA expression on osteoclast activity. […] Referring to this figures, scale bar represents 200 μm. Results were statistically significant with p<0.01 (**) and p<0.001 (***). […] Since these miRNAs may inhibit osteoclast differentiation or function by targeting different mRNAs, the repression of osteoclast differentiation was further examined using combinations of inhibitory miRNAs. Given that transient transfection with 10 pM of miRNA precursors was sufficient to inhibit up to approximately 90% of osteoclast differentiation, RAW264.7 cells were treated with a combination of miRNAs at a reduced concentration of 1 pM total precursors.

In data set [6] the test system is Pu.1, Nfatc1, Ctsk in RAW264.7 cells. Briefly: Western blot of Pu.1, Nfatc1, Ctsk after miRNA transfection and RANKL. It is filed as cell-based, murine. The conditions noted are these: transient miRNA transfection, 50 ng/ml RANKL. The protocol:
SDS lysis buffer (0.05 mM Tris-HCl, 50 mM BME, 2% SDS, 0.1% Bromophenol blue, 10% glycerol) was used to collect protein from cells. Samples were sonicated and heat denatured protein was equally loaded, separated on a 10% SDS-page gel, transferred onto a pure nitrocellulose membrane (BioRad), and blocked with 5% milk. Primary antibodies for immunoblotting included: anti-IκBα (1:1000 dilution, Cell signaling, 44D4), anti-p-p65 (1:500 dilution, Santa Cruz Biotechnology), anti-Pu.1 (5 μg/ml, Abcam, AB88082), anti-Nfatc1 (1 μg/ml, Abcam, AB25916), anti-Ctsk (4 μg/ml, Abcam, AB19027), anti-β-actin (1:5000 dilution, ABcam), for loading control. Membranes were incubated with horseradish peroxidase (HRP)-conjugated anti-mouse secondary antibody (1:2000 dilution, GE Healthcare) or anti-rabbit secondary antibody (1:2000 dilution, GE Healthcare) for 1 h and chemiluminescence signals were detected by ECL substrate (GE Healthcare).
To better examine the capacity of the miRNAs to inhibit osteoclast differentiation, osteoclast markers were examined in RAW264.7 cells transfected with the miRNA of interest, followed by RANKL treatment. FIG. 5F illustrates Western blot analysis for Pu.1, Nfatc1, or Ctsk in RAW264.7 cells after transient transfection with indicated miRNA and treatment with 50 ng/ml RANKL. Data in the figure represent average ±SEM; p values were based on Student's t-test.
A general note: A western blot detects proteins with antibodies after separation by electrophoresis.

As for `O=C(Nc1cc(Cl)cc2c1[nH]c1cnccc12)c1cccnc1` [PS1145], the “sICAM1-induced miRNA expression changes” value in data set [1] is reported as “abrogated”; in data set [1] (listed as PS1154), “higher levels of miRNA expression”.
OPG (receptor) returned a decrease in osteoclast differentiation of RAW264.7 cells induced by 30 ng/ml RANKL, with 200 ng/ml OPG in the data set with RANKL greater than 80%.

B1: sICAM1: soluble ICAM1, the cleaved extracellular domain of ICAM1; recombinant ICAM1 (R&D Systems, 796-IC-050) (protein)
chain: QVSIHPREAFLPQGGSVQVNCSSSCKEDLSLGLETQWLKDELESGPNWKLFELSEIGEDSSPLCFENCGTVQSSASATITVYSFPESVELRPLPAWQQVGKDLTLRCHVDGGAPRTQLSAVLLRGEEILSRQPVGGHPKDPKEITFTVLASRGDHGANFSCRTELDLRPQGLALFSNVSEARSLRTFDLPATIPKLDTPDLLEVGTQQKLFCSLEGLFPASEARIYLELGGQMPTQESTNSSDSVSATALVEVTEEFDRTLPLRCVLELADQILETQRTLTVYNFSAPVLTLSQLEVSEGSQVTVKCEAHSGSKVVLLSGVEPRPPTPQVQFTLNASSEDHKRSFFCSAALEVAGKFLFKNQTLELHVLYGPRLDETDCLGNWTWQEGSQQTLKCQAWGNPSPKMTCRRKADGALLPIGVVKSVKQEMNGTYVCHAFSSHGNVTRNVYLTVLYHSQNN
In the case of B1, the osteoclast differentiation entry in the data set on RAW264.7 cells [2] (50 ng/ml sICAM1 alone) was “not sufficient to induce differentiation”; with RAW264.7 cells [2] (50 ng/ml sICAM1 combined with 10 ng/ml RANKL), “additive effect”. Also, the “time to osteoclast differentiation” value in the data set on RAW264.7 cells [2] (50 ng/ml sICAM1 and 50 ng/ml RANKL together) was no more than 2 days. In addition, the “TRAP+ osteoclasts” value in the data set with RAW264.7 cells [2] (50 ng/ml sICAM1 with 4 ng/ml RANKL) is “high levels”; with RAW264.7 cells [2] (low levels of sICAM1 with 4 ng/ml RANKL) it was “no effect”. The “time course of osteoclast marker gene expression” value in data set [3] is “reduced the time necessary for osteoclast differentiation”. Also, the RAW264.7 cell migration result in the data set with RAW264.7 cells [4] is reported as “increased migration in a dose dependent manner”. The “expression of miRNAs downregulated during osteoclastogenesis” value in data set [1] (50 ng/ml sICAM1, magnified after co-treatment with RANKL) was “significant inhibition”.

B2: miR-33a: miRNA, SEQ ID NO: 74; delivered as pre-miRNA precursor; down-regulated during osteoclastogenesis (nucleic acid, listed as Homo sapiens)
chain: CUGUGGUGCAUUGUAGUUGCAUUGCAUGUUCUGGUGGUACCCAUGCAAUGUUUCCACAGUGCAUCACAG
modifications: pre-miRNA precursor hairpin, chemistry not given here
Consider B2, for which the “osteoclast maturation and activity” value in the data set on RAW264.7 cells [2] (all models tested) is listed as “Partial inhibition”. Moreover, the “bone resorption (osteoclast activity)” value in the data set on RAW264.7 cells [5] was “only a small decrease in bone resorption”. In data set [6], the “expression of Pu.1, Nfatc1, Ctsk (Western blot)” value is given as “retained expression of all three osteoclast genes”.
